Assay: D-arabinitol oxidase enzyme activity assay (H2O2 formation coupled to horse radish peroxidase/TMB, absorbance at 650 nm)
Assay type: biochemical
Settings: ratio of oxidase activity with sorbitol as substrate to DA as substrate; protein extracts from E. coli, 10 mM sugar alcohol, pH 6.5, 23° C.
Method: The D-arabinitol oxidase enzyme activity is assayed by the formation of H2O2 during the enzyme reaction (FIG. 1) as coupled with a peroxidase indicator reaction that catalyzes the oxidation of 3,3′,5,5′-tetramethylbenzidine hydrochloride (TMB), producing a colored product. An increase in absorbance is a direct measure of D-arabinitol oxidase activity. Enzyme activity is assayed in crude extracts and in purified protein preparations. […] In this reaction, formation of H2O2 results in the formation of blue color measurable by reading the absorbance at 650 nanometers (nm). Absorbance at 650 nm is followed kinetically using a Tecan Rainbow spectrophotometer at room temperature (23° C.). Milli-absorbance units per minute (mA/min) are calculated as the increase in absorbance at 650 nm/minute×1000. It is recognized that researchers skilled in the art may perform the assay as an end-point assay, by stopping reactions at various times with a solution of acid to produce a yellow color, and reading the absorbance at 450 nm. […]
DNA sequences encoding an SaOx protein (SEQ ID NO:3) are used as starting material for error prone PCR. Error-prone PCR is accomplished by performing PCR from DNA templates using a non-proof reading DNA polymerase such as Taq Polymerase, or by using a GeneMorph II Random Mutagenesis Kit (Stratagene). […]

B1: SaOX (wild type + His-tag): Streptomyces avermitilis oxidase (SEQ ID NO:4), wild type with C-terminal His-tag (STOP423LEHHHHHH) (protein, listed as Streptomyces avermitilis)
chain: MTDAGTALTNWAGNITYSAKELHRPQSLDALRALVADSAKVRVLGSGHSFNEIAEPGADGVLLSLTALPPSVEVDTAARTVRVAGGVRYAELARVVHGHGLALPNMASLPHISVAGSVATGTHGSGVTNGSLASAVREVELVTADGSAVRIGRGDDRFDGAVTALGALGVVTALTLDLEPDYRVAQQVFTELPLAGLDFDAVAASAYSVSLFTGWRTSGFAQVWLKRRTDRPSADFPWAAPATEAMHPVPGMPAVNCTQQFGVPGPWHERLPHFRAEFTPSSGAELQSEYLLPRPYALDALHALDAVRETVAPVLQICEVRTVAADAQWLSPAYGRDTVALHFTWVEDLAAVLPVVRRVEEALDPFDPRPHWGKVFAVPARVLRGRYPRLGDFRALVDSLDPGGKFTNAFVREVLGSGDRPS
modifications: C-terminal LEHHHHHH His-tag
For B1, which Sorb/DA is on record?
The Sorb/DA was 14.8.

— patent US20080254496A1, “Methods for Detection of Fungal Disease” (priority 2005, published 2008)
